Experimental findings from patent US7569660 are described below.

Data set [1] addresses Rnq1 (S. cerevisiae) (UniProt P25367).
Data set [2] deals with yeast Hsp104 protein (UniProt P31539).
Sequence of yeast Hsp104 protein (P31539 whole entry): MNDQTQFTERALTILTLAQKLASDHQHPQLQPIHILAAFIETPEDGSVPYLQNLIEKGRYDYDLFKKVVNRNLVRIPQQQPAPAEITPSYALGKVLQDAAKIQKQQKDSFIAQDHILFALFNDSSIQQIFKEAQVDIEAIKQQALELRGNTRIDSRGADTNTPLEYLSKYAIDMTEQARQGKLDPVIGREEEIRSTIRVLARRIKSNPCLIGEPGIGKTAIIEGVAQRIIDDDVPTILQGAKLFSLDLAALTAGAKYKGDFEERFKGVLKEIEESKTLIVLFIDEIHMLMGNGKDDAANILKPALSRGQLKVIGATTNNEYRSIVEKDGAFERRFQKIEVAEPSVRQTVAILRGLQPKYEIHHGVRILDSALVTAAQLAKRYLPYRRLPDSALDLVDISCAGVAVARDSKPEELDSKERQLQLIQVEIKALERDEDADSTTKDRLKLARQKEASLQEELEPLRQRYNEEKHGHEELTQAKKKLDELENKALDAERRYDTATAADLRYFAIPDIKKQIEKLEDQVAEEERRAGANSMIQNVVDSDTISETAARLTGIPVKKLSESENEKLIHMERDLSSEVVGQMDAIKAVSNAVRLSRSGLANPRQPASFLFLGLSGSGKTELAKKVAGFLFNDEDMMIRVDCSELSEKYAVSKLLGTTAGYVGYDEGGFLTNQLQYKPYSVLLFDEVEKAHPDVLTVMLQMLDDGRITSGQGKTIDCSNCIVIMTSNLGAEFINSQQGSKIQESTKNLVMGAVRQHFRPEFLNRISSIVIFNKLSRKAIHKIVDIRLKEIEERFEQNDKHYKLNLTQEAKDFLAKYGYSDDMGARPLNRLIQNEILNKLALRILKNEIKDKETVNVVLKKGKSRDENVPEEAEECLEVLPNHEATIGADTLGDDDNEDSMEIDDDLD

In data set [1], Rnq1 (from UniProt P25367 1-405) showed a lag time of Thioflavin T fluorescence increase, seeded with 2% preformed fibers of 4.3 h and a lag time of Thioflavin T fluorescence increase, unseeded of 6.4 h.
Regarding aldolase, in data set [2], the “ATPase activity of Hsp104 (released phosphate, Malachite Green)” value was “did not”.
